# Measurements published in paper PMC7424515, “Molecular characterization of pyridoxine 5′-phosphate oxidase and its pathogenic forms associated with neonatal epileptic encephalopathy” (Scientific Reports, 2020).
# Target: the molecule itself
# Test: SEC; Superdex 200 10/300 GL; 20 mM potassium-phosphate buffer, pH 7.6, 150 mM NaCl, 5 mM 2-mercaptoethanol; oligomeric state from elution profile
row,Molecule,stoichiometry N
1,"human pyridoxine 5′-phosphate oxidase (PNPO), wild type (enzyme, also called wild type PNPO; pyridoxal 5′-phosphate synthase; source: E. coli, pET28-PNPO, purified (HisTrap metal-chelation chromatography)) MTCWLRGVTATFGRPAEWPGYLSHLCGRSAAMDLGPMRKSYRGDREAFEETHLTSLDPVKQFAAWFEEAVQCPDIGEANAMCLATCTRDGKPSARMLLLKGFGKDGFRFFTNFESRKGKELDSNPFASLVFYWEPLNRQVRVEGPVKKLPEEEAECYFHSRPKSSQIGAVVSHQSSVIPDREYLRKKNEELEQLYQDQEVPKPKSWGGYVLYPQVMEFWQGQTNRLHDRIVFRRGLPTGDSPLGPMTHRGEEDWLYERLAP",2
2,"human PNPO R141C variant (enzyme, Pathogenic variant found in a PNPOD patient; source: E. coli Rosetta(λDE3), purified (HisTrap metal-chelation chromatography)) MTCWLRGVTATFGRPAEWPGYLSHLCGRSAAMDLGPMRKSYRGDREAFEETHLTSLDPVKQFAAWFEEAVQCPDIGEANAMCLATCTRDGKPSARMLLLKGFGKDGFRFFTNFESRKGKELDSNPFASLVFYWEPLNRQVCVEGPVKKLPEEEAECYFHSRPKSSQIGAVVSHQSSVIPDREYLRKKNEELEQLYQDQEVPKPKSWGGYVLYPQVMEFWQGQTNRLHDRIVFRRGLPTGDSPLGPMTHRGEEDWLYERLAP",2
3,"human PNPO R225H variant (enzyme, Pathogenic variant found in PNPOD patients; source: E. coli Rosetta(λDE3), purified (HisTrap metal-chelation chromatography)) MTCWLRGVTATFGRPAEWPGYLSHLCGRSAAMDLGPMRKSYRGDREAFEETHLTSLDPVKQFAAWFEEAVQCPDIGEANAMCLATCTRDGKPSARMLLLKGFGKDGFRFFTNFESRKGKELDSNPFASLVFYWEPLNRQVRVEGPVKKLPEEEAECYFHSRPKSSQIGAVVSHQSSVIPDREYLRKKNEELEQLYQDQEVPKPKSWGGYVLYPQVMEFWQGQTNHLHDRIVFRRGLPTGDSPLGPMTHRGEEDWLYERLAP",2
4,"human PNPO G118R variant (enzyme, Pathogenic variant found in PNPOD patients; source: E. coli Rosetta(λDE3), purified (HisTrap metal-chelation chromatography)) MTCWLRGVTATFGRPAEWPGYLSHLCGRSAAMDLGPMRKSYRGDREAFEETHLTSLDPVKQFAAWFEEAVQCPDIGEANAMCLATCTRDGKPSARMLLLKGFGKDGFRFFTNFESRKRKELDSNPFASLVFYWEPLNRQVRVEGPVKKLPEEEAECYFHSRPKSSQIGAVVSHQSSVIPDREYLRKKNEELEQLYQDQEVPKPKSWGGYVLYPQVMEFWQGQTNRLHDRIVFRRGLPTGDSPLGPMTHRGEEDWLYERLAP",2
5,"human PNPO R116Q/R225H double variant (enzyme, Combination of replacements found together in PNPOD patients; source: E. coli Rosetta(λDE3), purified (HisTrap metal-chelation chromatography)) MTCWLRGVTATFGRPAEWPGYLSHLCGRSAAMDLGPMRKSYRGDREAFEETHLTSLDPVKQFAAWFEEAVQCPDIGEANAMCLATCTRDGKPSARMLLLKGFGKDGFRFFTNFESQKGKELDSNPFASLVFYWEPLNRQVRVEGPVKKLPEEEAECYFHSRPKSSQIGAVVSHQSSVIPDREYLRKKNEELEQLYQDQEVPKPKSWGGYVLYPQVMEFWQGQTNHLHDRIVFRRGLPTGDSPLGPMTHRGEEDWLYERLAP",2

# Target: human PNPO X262Q variant (human)
# Test: as above
row,Molecule,stoichiometry N
1,human PNPO X262Q variant (enzyme),2
